# Data taken from PMC8334859, “MIR156-Targeted SPL9 Is Phosphorylated by SnRK2s and Interacts With ABI5 to Enhance ABA Responses in Arabidopsis” (Frontiers in Plant Science, 2021).
# B1: MBP-SPL3 (natural protein, Arabidopsis thaliana, UniProt P93015 1-131, looked up)
# chain: MSMRRSKAEGKRSLRELSEEEEEEEETEDEDTFEEEEALEKKQKGKATSSSGVCQVESCTADMSKAKQYHKRHKVCQFHAKAPHVRISGLHQRFCQQCSRFHALSEFDEAKRSCRRRLAGHNERRRKSTTD
# notes: SPL3, Arabidopsis thaliana, At2g33810, full-length CDS in pMAL-c2X; source: Escherichia coli transetta
# B2: MBP-SPL9 (natural protein, Arabidopsis thaliana, UniProt Q700W2 1-375, looked up)
# chain: MEMGSNSGPGHGPGQAESGGSSTESSSFSGGLMFGQKIYFEDGGGGSGSSSSGGRSNRRVRGGGSGQSGQIPRCQVEGCGMDLTNAKGYYSRHRVCGVHSKTPKVTVAGIEQRFCQQCSRFHQLPEFDLEKRSCRRRLAGHNERRRKPQPASLSVLASRYGRIAPSLYENGDAGMNGSFLGNQEIGWPSSRTLDTRVMRRPVSSPSWQINPMNVFSQGSVGGGGTSFSSPEIMDTKLESYKGIGDSNCALSLLSNPHQPHDNNNNNNNNNNNNNNTWRASSGFGPMTVTMAQPPPAPSQHQYLNPPWVFKDNDNDMSPVLNLGRYTEPDNCQISSGTAMGEFELSDHHHQSRRQYMEDENTRAYDSSSHHTNWSL
# notes: SPL9, Arabidopsis thaliana, At2g42200, full-length CDS in pMAL-c2X; source: Escherichia coli transetta, purified
# Key:
# [1] = molecular target: T1, ABI5-GST (Arabidopsis thaliana, UniProt Q9SJN0 1-442); experiment: pull-down; in vitro; SPL3 and ABI5 fusion proteins incubated with amylose resin overnight in column buffer (20 mM Tris-HCl pH 7.5, 200 mM NaCl, 1 mM PMSF, 1 mM DTT); blots with anti-GST and anti-MBP; conditions: both partners purified
# T1 construct: ABI5, Arabidopsis thaliana, At2g36270, full-length CDS in pGEX4T-1; printed both as ABI5-GST and as GST-ABI5; also called GST-ABI5; source: Escherichia coli transetta
# T1 sequence (looked up): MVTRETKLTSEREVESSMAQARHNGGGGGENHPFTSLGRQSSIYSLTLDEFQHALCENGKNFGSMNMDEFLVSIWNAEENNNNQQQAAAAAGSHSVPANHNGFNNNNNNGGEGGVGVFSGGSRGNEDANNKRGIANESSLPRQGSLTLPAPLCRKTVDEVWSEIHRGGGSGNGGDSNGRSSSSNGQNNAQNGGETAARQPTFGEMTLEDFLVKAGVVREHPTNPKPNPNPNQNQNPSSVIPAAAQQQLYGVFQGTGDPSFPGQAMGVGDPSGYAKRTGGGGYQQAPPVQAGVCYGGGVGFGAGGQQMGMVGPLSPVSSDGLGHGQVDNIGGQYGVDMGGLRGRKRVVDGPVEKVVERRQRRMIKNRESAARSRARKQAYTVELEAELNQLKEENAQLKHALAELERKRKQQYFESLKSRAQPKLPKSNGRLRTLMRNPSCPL
# [2] = molecular target: T1, ABI5-GST; experiment: pull-down; in vitro; fusion proteins incubated with glutathione resin overnight in column buffer (20 mM Tris-HCl pH 7.5, 200 mM NaCl, 1 mM PMSF, 1 mM DTT); blots with anti-GST and anti-MBP; conditions: both partners purified
Binder,binding result [1],binding result [2]
B1,binds,–
B2,–,binds
